Experimental data from paper PMC7386247.
pKd: −log10 of the molar value.

Tests used:
[1] = test system: PARP2 (Homo sapiens); test: fluorescence polarization; conditions: not stated in the material (methods in supplement)
[2] = test system: PARP1 (Homo sapiens); test: fluorescence polarization; conditions: not stated in the material (methods in supplement)

19mer
pKd [1]: 7.26

gas5
pKd [2]: 6.46
pKd [1]: 7.40

p18mer DNA
pKd [2]: 7.89
pKd [1]: 7.23

tRNALeu
pKd [2]: 6.80
pKd [1]: 7.43
